The values that follow come from the RNAGym collection of RNA variant scans (doi:10.7554/elife.80360).

The chains are these.
B1: Hairpin Ribozyme (parent)
chain: GUCCUCUUUCACGUGCGCGUGAAAGAGAGAAGUGAACCAGAGAAACACACGUUGUGGUAUAUUACCUGGUA

The variants in the data set derive from B1. The data set can be described thus: self-cleavage, relative activity (ratio to wild type); higher = more cleavage; co-transcriptional.
For the variant GUCCUCUUUCACGUGCGCGUGAAAGAGAGAAGUGAACCAGAGAAACUCACGUUGUGGUAUCUUACCUGGUA [A47U A61C], the self-cleavage came to 0.243.
Take GUCCUCUUUCACGUGCGCGUGAAAGAGAGAAGUGAACCAGAGAAACGCACGUUGUGGUAUAUUACCUGGGA [A47G U70G]: the self-cleavage amounted to 0.115.
The result for GUCCUCUUUCACGUGCGCGUGAAAGAGAGAAGUGAACCAGAGAAACGCACGUUGUGGUAUAUUACCUGGCA [A47G U70C] reads 0.1; that for GUCCUCUUUCACGUGCGCGUGAAAGAGAGAAGUGAACCAGAGAAACGCACAUUGUGGUAUAUUACCUGGUA [A47G G51A], 0.15.
Under GUCCUCUUUCACGUGCGCGUGAAAGAGAGAAGUGAACCAGAGAAACAAACGUUGUGGUAUAUUACUUGGUA [C48A C66U] stands 0.202; under GUCCUCUUUCACGUGCGCGUGAAAGAGAGAAGUGAACCAGAGAAACAAACGUUGUGGUAUAUUACGUGGUA [C48A C66G], 0.245.
The result for GUCCUCUUUCACGUGCGCGUGAAAGAGAGAAGUGAACCAGAGAAACCCACGUUGUGGUAUAUUACCUCGUA [A47C G68C] reads 0.195; that for GUCCUCUUUCACGUGCGCGUGAAAGAGAGAAGUGAACCAGAGAAACCCACGUUGUGGUAUAUUACCUAGUA [A47C G68A], 0.268; that for GUCCUCUUUCACGUGCGCGUGAAAGAGAGAAGUGAACCAGAGAAACAAACGUUGUGGUACAUUACCUGGUA [C48A U60C], 0.208.
As for GUCCUCUUUCACGUGCGCGUGAAAGAGAGAAGUGAACCAGAGAAACGCACGUUGUGGUAUAUUACCAGGUA [A47G U67A], the self-cleavage is 0.136.
Consider GUCCUCUUUCACGUGCGCGUGAAAGAGAGAAGUGAACCAGAGAAACGCACGUUGUGGUAUAUUACCCGGUA [A47G U67C], for which the self-cleavage was found to be 0.129.
The result for GUCCUCUUUCACGUGCGCGUGAAAGAGAGAAGUGAACCAGAGAAACAAACGUUGUGGUAUACUACCUGGUA [C48A U62C] reads 0.207.
As to GUCCUCUUUCACGUGCGCGUGAAAGAGAGAAGUGAACCAGAGAAACGCACGUUGUUGUAUAUUACCUGGUA [A47G G56U], the self-cleavage worked out at 0.169.
Under GUCCUCUUUCACGUGCGCGUGAAAGAGAGAAGUGAACCAGAGAAACGCACGUUGUGGUAUAUUACCUUGUA [A47G G68U] stands 0.104; under GUCCUCUUUCACGUGCGCGUGAAAGAGAGAAGUGAACCAGAGAAACGCACGUUGUGGUAUAUUACCUCGUA [A47G G68C], 0.143; under GUCCUCUUUCACGUGCGCGUGAAAGAGAGAAGUGAACCAGAGAAACCCACGUUGUGGUAAAUUACCUGGUA [A47C U60A], 0.219.
The result for GUCCUCUUUCACGUGCGCGUGAAAGAGAGAAGUGAACCAGAGAAACCCACGUUGUGGUAGAUUACCUGGUA [A47C U60G] reads 0.324; that for GUCCUCUUUCACGUGCGCGUGAAAGAGAGAAGUGAACCAGAGAAACGCAUGUUGUGGUAUAUUACCUGGUA [A47G C50U], 0.101.
Under GUCCUCUUUCACGUGCGCGUGAAAGAGAGAAGUGAACCAGAGAAACAAACGUUGUGGUAUAUUACCUGAUA [C48A G69A] stands 0.173; under GUCCUCUUUCACGUGCGCGUGAAAGAGAGAAGUGAACCAGAGAAACAAACGUUGUGGUAUAUUACCUGUUA [C48A G69U], 0.121.
With GUCCUCUUUCACGUGCGCGUGAAAGAGAGAAGUGAACCAGAGAAACGCACGUUGUGGUAUAUUAACUGGUA [A47G C65A], the self-cleavage stood at 0.0744.
Under GUCCUCUUUCACGUGCGCGUGAAAGAGAGAAGUGAACCAGAGAAACUCACGUUGUGGUUUAUUACCUGGUA [A47U A59U] stands 0.194; under GUCCUCUUUCACGUGCGCGUGAAAGAGAGAAGUGAACCAGAGAAACUUACGUUGUGGUAUAUUACCUGGUA [A47U C48U], 0.112.
The result for GUCCUCUUUCACGUGCGCGUGAAAGAGAGAAGUGAACCAGAGAAACUAACGUUGUGGUAUAUUACCUGGUA [A47U C48A] reads 0.157; that for GUCCUCUUUCACGUGCGCGUGAAAGAGAGAAGUGAACCAGAGAAACCCACGUUGUGGUAUACUACCUGGUA [A47C U62C], 0.187.
Under GUCCUCUUUCACGUGCGCGUGAAAGAGAGAAGUGAACCAGAGAAACGCACGUUGUGGUAUAUUACCUGAUA [A47G G69A] stands 0.0811.
On to GUCCUCUUUCACGUGCGCGUGAAAGAGAGAAGUGAACCAGAGAAACAAACGUUGGGGUAUAUUACCUGGUA [C48A U55G], for which the self-cleavage is 0.251.
The result for GUCCUCUUUCACGUGCGCGUGAAAGAGAGAAGUGAACCAGAGAAACAAACGUUGAGGUAUAUUACCUGGUA [C48A U55A] reads 0.228; that for GUCCUCUUUCACGUGCGCGUGAAAGAGAGAAGUGAACCAGAGAAACUCACGUGGUGGUAUAUUACCUGGUA [A47U U53G], 0.108; that for GUCCUCUUUCACGUGCGCGUGAAAGAGAGAAGUGAACCAGAGAAACAAACGUUGUGGUUUAUUACCUGGUA [C48A A59U], 0.121.
Under GUCCUCUUUCACGUGCGCGUGAAAGAGAGAAGUGAACCAGAGAAACAAACGUUGUGGUCUAUUACCUGGUA [C48A A59C] stands 0.139.
Under GUCCUCUUUCACGUGCGCGUGAAAGAGAGAAGUGAACCAGAGAAACAAACGUUGUGGUGUAUUACCUGGUA [C48A A59G] stands 0.219.
On to GUCCUCUUUCACGUGCGCGUGAAAGAGAGAAGUGAACCAGAGAAACCCACGUUGUGCUAUAUUACCUGGUA [A47C G57C], for which the self-cleavage stood at 0.0853.
Consider GUCCUCUUUCACGUGCGCGUGAAAGAGAGAAGUGAACCAGAGAAACCCACGUUGUGUUAUAUUACCUGGUA [A47C G57U], for which the self-cleavage worked out at 0.275.
For the variant GUCCUCUUUCACGUGCGCGUGAAAGAGAGAAGUGAACCAGAGAAACUCACGUUGUGGUAUAUUACCUGGUA [A47U], the self-cleavage was 0.154.
Under GUCCUCUUUCACGUGCGCGUGAAAGAGAGAAGUGAACCAGAGAAACGCACGUUGUGGUAUAUUACCUGGUA [A47G] stands 0.162; under GUCCUCUUUCACGUGCGCGUGAAAGAGAGAAGUGAACCAGAGAAACCCACGUUGUGGUAUAUUACCUGCUA [A47C G69C], 0.196.
The result for GUCCUCUUUCACGUGCGCGUGAAAGAGAGAAGUGAACCAGAGAAACGCACGUUGUGGAAUAUUACCUGGUA [A47G U58A] reads 0.221.
